Measurements published in patent US20240401063, “Aptamer for DKK1 and Use Thereof” (APTACURE THERAPEUTICS LIMITED, published 2024).

T1: DKK1 (Dickkopf-1), full-length (Homo sapiens, UniProt O94907 SEQ:32-266)
T1 sequence: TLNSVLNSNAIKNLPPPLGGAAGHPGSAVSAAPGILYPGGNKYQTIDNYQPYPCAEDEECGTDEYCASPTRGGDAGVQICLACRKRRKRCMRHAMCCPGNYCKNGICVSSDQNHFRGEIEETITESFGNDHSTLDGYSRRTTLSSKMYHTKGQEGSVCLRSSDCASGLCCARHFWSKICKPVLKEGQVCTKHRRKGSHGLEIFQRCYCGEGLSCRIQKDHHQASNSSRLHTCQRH

B1: Aptdkk-7 (ssDNA)
DNA: CGTACGGTCGACGCTAGCAGCCCCCTTCCTTTCTTCCTCGACCTCCCTCCGCAGGATCCGAGCTCCACGTG
B2: Aptdkk-11 (ssDNA)
DNA: CGTACGGTCGACGCTAGCCATCCAGCTCCCTTTATTCCCTCTGTACCCTCCTGGGATCCGAGCTCCACGTG
B3: Aptdkk-16 (ssDNA)
DNA: CGTACGGTCGACGCTAGCTACACGCCATCGGTGCCCTTTTCTCTTCTTGTCTGGGATCCGAGCTCCACGTG
B4: Aptdkk-15 (ssDNA)
DNA: CGTACGGTCGACGCTAGCACGTTCAGATACCTTTTTTCCCCTTTGTTCTGCCGGGATCCGAGCTCCACGTG
B5: Aptdkk-10 (ssDNA)
DNA: CGTACGGTCGACGCTAGCACTCTCCACGTTTTTCCACCTCCTTCCTCCTTTGCGGATCCGAGCTCCACGTG
B6: Aptdkk-4 (ssDNA)
DNA: CGTACGGTCGACGCTAGCTGCACGCTTTTCCCTCCTTTTCTCGTCTGACCGCGGGATCCGAGCTCCACGTG
B7: Aptdkk-14 (ssDNA)
DNA: CGTACGGTCGACGCTAGCCTGTGCAGTTGGTTGGTTATGGTTGGGACTGTCAGGATCCGAGCTCCACGTG
B8: Aptdkk-2 (ssDNA)
DNA: CGTACGGTCGACGCTAGCTGGTGTTGGGGTGGGTTGGTGGGTATTTTGGCGGTGGATCCGAGCTCCACGTG
B9: Aptdkk-12 (ssDNA)
DNA: CGTACGGTCGACGCTAGCTCCCCTCATAATCCGACTTTTTCCCTCCCCCTCCCGGATCCGAGCTCCACGTG
B10: Aptdkk-8 (ssDNA)
DNA: CGTACGGTCGACGCTAGCTGCCACCCCTGTTTTCCACATTTTCCTCGACCGCGGGATCCGAGCTCCACGTG
B11: Aptdkk-18 (ssDNA)
DNA: CGTACGGTCGACGCTAGCTCCACCCAATTCTCTTCCCGTCTTTCCTGCACATGGGATCCGAGCTCCACGTG
B12: Aptdkk-17 (ssDNA)
DNA: CGTACGGTCGACGCTAGCTACTTCTCCACGTCTCTTTCCCTGTCCCCTTCGCAGGATCCGAGCTCCACGTG
B13: Aptdkk-9 (ssDNA)
DNA: CGTACGGTCGACGCTAGCTACACCCCTTCCTGTTCTATTCTTCCTGCCTTGCGGGATCCGAGCTCCACGTG
B14: Aptdkk-13 (ssDNA)
DNA: CGTACGGTCGACGCTAGCTGGTGTGGGGGTGGGTGGTGGGTTGTATCGTTTGAGGATCCGAGCTCCACGTG
B15: Aptdkk-19 (ssDNA)
DNA: CGTACGGTCGACGCTAGCATAGGTTGGGTAGGTTGGTTGCTTTTTTTGTCGCGGGATCCGAGCTCCACGTG
B16: Aptdkk-1 (ssDNA)
DNA: CGTACGGTCGACGCTAGCTGTGGTTATGGGGTTGGTGGGTGGGTTCTTACGGAGGATCCGAGCTCCACGTG
B17: Aptdkk-6 (ssDNA)
DNA: CGTACGGTCGACGCTAGCCCGGTTGCAATGGTTGGGGTGGTTGGTTTTGCATGGGATCCGAGCTCCACGTG

Molecular target: T1, DKK1 (Dickkopf-1), full-length
Assay: ELONA; specificity High at 1 uM; Kd not given
Conditions: tags: His6; label: biotin
Experimental: (§1) Enzyme linked oligonucleotide assay (ELONA): 160 ng DKK1 per well and negative target were coated in a 96-well microtiter plate by incubating at 4° C. overnight through hydrophobic interaction. Non-binding sites in wells were blocked with bull serum albumin (BSA) at room temperature for 1 hour, and then washed with DNA-binding buffer 4 times for 5 minutes each. The biotinylated aptamer candidates/RS with an appropriate concentration were added to each well and incubated at room temperature for 45 minutes with continuous gentle shaking. After binding, the plate was washed with washing buffer 4 times for 5 minutes each to remove non-specific and weakly binding sequences. 100 μl streptavidin-horseradish peroxidase (HRP) (1:10000 dilute into PBST+0.1% BSA) was added to each well, and incubated for 30 minutes, and washed for 4 times with the binding buffer. 50 μl 3,3′,5,5′-tetramethylbenzidine (TMB) as a HRP substrate was added to each well and incubated for 20 minutes. 50 μl 2M H₂SO₄ was added to terminate the reaction. The absorbance at 450 nm was measured with a microplate reader (Molecular Device i3x). Data was analyzed with Origin software. A binding curve was generated and KD was calculated with a non-linear curve fitting model logistic.
The specificity of 1 μM of each adapter/RS against DKK-1 was determined for 20 potential sequences with the highest occurrence rate (Table 4) by ELONA and the absorbance at 450 nm was detected.

B1: binds.
B2: binds.
B3: binds.
B4: binds.
B5: binds.
B6: binds.

Same assay, conditions: tags: His6; label: biotin; G-rich, predicted G4

B7: binds.
B8: binds.

Molecular target: T1, DKK1 (Dickkopf-1), full-length
Assay: BLI
Conditions: tags: His6
Experimental: The specificity against DKK-1 was determined with 1 μM of each aptamer/RS for 19 potential sequences with the highest occurrence rate in the 30th round by ELONA. […] Next, the binding affinity against DKK1 was determined for candidate aptamers by BLL. DKK1 protein was applied at gradient concentrations of 0 nM, 3.125 nM, 6.25 nM, 12.5 nM, 25 nM, 50 nM, 100 nM, and 200 nM.

Compared with TATGGTTTCCCTACATGTGTTCAGTGTTTGTGTGT (ssDNA) [D30-13], TCGTGCTTGATTCCATGCTTGGCCGCCTTCTCGTG (ssDNA) [D30-12] is 3.6-fold higher in Kd: 1.67 nM for the first, 5.99 nM for the second. The first binds more tightly here.

Going from TCCTCTTCCTTTGGCTAGGTTGGTTAGGTTGGTGC (ssDNA) [D30-10] to CAGTCTTAGTGCTCATGTGTTCAGTGTTTGTGTGT (ssDNA) [D30-17], the Kd rises from 1.97 nM to 20.1 nM (10-fold).

Going from TGCTGAACTTTACGTGATTCTAGTCGCTGACCGCG (ssDNA) [D30-4] to CTGTTCTAACGTGGTTGACCCCCCTTTGCTTTGAC (ssDNA) [D30-9], the Kd falls from 23 nM to 2.42 nM (9.5-fold).

First: ATGTCCATTTGCGAGTAGGTGTTTGAGTGAGGTGA (ssDNA) [D30-1]
Second: AATTTCGATAGTCCATGTGTTCAGTGCCTGTGTGT (ssDNA) [D30-15]
The Kd of the first is 1.8-fold higher: 5.34 nM for the first, 2.92 nM for the second.

Going from CTTCTTGTCCCTCGATGTGTTCAGTGTTTGTGTGT (ssDNA) [D30-3] to TACCTTCTGCTCGATGTGTTCAGTGTGTTGTGTGT (ssDNA) [D30-19], the Kd rises from 2.64 nM to 20.1 nM (7.6-fold). The first binds more tightly here.

First: ATGTAAATCGATTCCTCTGGCCGCATCGCGCTTTA (ssDNA) [D30-16]
Second: TGTAGATAGAGGGGTTGGTGTGGTTGGCGCTATCC (ssDNA) [D30-7]
The Kd of the first is 2.9-fold lower: 1.9 nM for the first, 5.5 nM for the second.

ATGCCCCTCCTCTGTTGAACTGTTTACCCCTTTGA (ssDNA) [D30-14] and CATTGTCTCAGCGCATGTGTTCAGTTCTTGTGTGT (ssDNA) [D30-2] are within 1.5-fold of each other in Kd: 2.54 nM for the first, 2.89 nM for the second.

Compared with TCTGCTTTCACGTACTAGGTTGGTTAGGTTGGTGT (ssDNA) [D30-18], TGCATCTTCCTTCTTCGATTCTATGCTCGGCCGCG (ssDNA) [D30-8] is 6.5-fold lower in Kd: 20.8 nM for the first, 3.19 nM for the second. The second binds more tightly here.

Molecular target: T1, DKK1 (Dickkopf-1), full-length
Assay: ELONA; 1 nM: no or slight difference from aptdkk5
Conditions: tags: His6; label: biotin
Experimental: as §1
The specificity of 100 nM/i nM of each aptamer/RS against DKK-1 was determined for 24 truncated sequences of aptdkk5 and original aptdkk5 (Table 6) by ELONA and the absorbance at 450 nm was detected. When the concentration was 100 nM, there was no significant difference or slight difference in the absorbance between apt5-1-38, apt5-1-35, apt5-1-62, or apt5-1-59 and the original aptdkk5 (FIG. 8a). When the concentration was 1 nM, there was no significant difference or slight difference in the absorbance between apt5-1-50, apt5-1-47, apt5-1-44, apt5-1-41, apt5-1-38, apt5-1-35, apt5-1-65, apt5-1-62, apt5-1-59, or apt5-1-53 and the original aptdkk5 (FIG. 8b). After the specificity and length of these aptamers were considered, apt5-1-44, apt5-1-41, apt5-1-38, and apt5-1-35 were selected to determine the binding affinity against DKK1.

CGTACGGTCGACGCTAGCTGGTGGTTGGGGTGGGTGGTGGTTGTTCGTGG (ssDNA) [Apt5-1-50]: binds.
CGTACGGTCGACGCTAGCTGGTGGTTGGGGTGGGTGGTGGTTGTTCG (ssDNA) [Apt5-1-47]: binds.

Molecular target: T1, DKK1 (Dickkopf-1), full-length
Assay: ELONA; room temperature
Conditions: tags: His6; label: biotin
Experimental: as §1
Aptamer candidates with significant specificity and Candidate 3 as a negative control were used to determine the binding affinity against DKK1. Candidates 1, 2, 4, and 14 had concentrations of (0, 62.5 nM, 125 nM, 250 nM, 500 nM, 1000 nM, 2000 nM, and 4000 nM), Candidates 7, 10, 15, and 16 had concentrations of (0, 23.44 nM, 46.86 nM, 93.75 nM, 187.5 nM, 375 nM, 750 nM, and 1500 nM), and other candidates had concentrations of (0, 0.18 nM, 0.74 nM, 2.96 nM, 11.84 nM, 47.35 nM, 189.39 nM, and 757.58 nM). […] Six candidates (aptdkk-5, 13, 20, 19, 6, and 1) were rich in G. The other five sequences (aptdkk-9, 18, 12, 17, and 8) were not rich in G.

Going from B9 to B10, the Kd rises from 38.2 nM to 104 nM (2.7-fold). The first binds more tightly here.

First: B11
Second: B12
The Kd of the first is 6.1-fold lower: 8.2 nM for the first, 50.4 nM for the second.

B13 was tested, and the Kd was 4.2 nM.

Same assay, conditions: tags: His6; label: biotin; G-rich, predicted G4

Compared with B14, B15 is 8.8-fold higher in Kd: 1.1 nM for the first, 9.7 nM for the second. The first binds more tightly here.

Compared with B16, B17 is 12-fold lower in Kd: 344 nM for the first, 29.4 nM for the second.
